Our source for the peptide exchange yield values is patent publication US20200040057A1.

Some results are limits rather than exact numbers.

Test [1] deals with HLA-B*07 (human). As to the kind of experiment: UV peptide exchange ELISA; ++++ = yield >75%. A general note: An ELISA detects its analyte on a solid surface through an enzyme-linked reagent.
The target in test [2] is HLA-B*07 (human). The experiment in a line: UV peptide exchange ELISA; +++ = yield >50.

The molecule LPRIPFSTF displayed a peptide exchange yield in test [1] of more than 75%.
Consider VPRPIFSQLYL, for which the peptide exchange yield in test [1] is more than 75%.
In test [2], VPRPTSTVGL showed a peptide exchange yield of 50 to 75%.
In test [1], FPNEVSVVL had a peptide exchange yield of more than 75%.
The molecule LPRGLSPARQL returned a peptide exchange yield in test [2] of 50 to 75%.
